Among the data in paper PMC11170914, “A distinct dimer configuration of a diatom Get3 forming a tetrameric complex with its tail-anchored membrane cargo” (BMC Biology, 2024) are stoichiometry N values, retold here.

Values joined by “and” are separate entries in the source; they are usually repeats but may differ in a detail not shown here. Identical values can stand only once.

Assay [1] concerns the target Pt-Get3a (full-length, amino acids 1–349), purified, His-tag cleaved (Phaeodactylum tricornutum). Description: SEC; purified Pt-Get3a (after TEV cleavage of the 6His-tag) or its mutants alone; near physiological saline, ~100 mM NaCl; tetramer-dimer equilibrium.
For assay [2] the target is unchanged. Description: SAXS; HPLC with online size exclusion column, beamline BL23A1 (NSRRC), proteins ~5 mg/mL; P2 symmetry for the dimer, p222 for the Pt-Get3a/TA complex.
The target is the same in assay [3]. Put plainly: SEC; purified Pt-Get3a alone; NaCl increased to 500 mM; peak at ~78 mL.
Assay [4] deals with Pt-Get3a wild type, co-expressed with His-tagged TA protein (Phaeodactylum tricornutum). Description: SEC; Pt-Get3a/TA complex co-expressed and co-purified by Ni-NTA, then Superdex-200; ~100 mM NaCl and, as a control, 500 mM NaCl; fractions on SDS-PAGE.
For assay [5] the target is unchanged. Description: SAXS; HPLC with online size exclusion column, beamline BL23A1 (NSRRC), proteins ~5 mg/mL; P2 symmetry for the dimer, p222 for the Pt-Get3a/TA complex.
In assay [6] the target is Pt-Get3a L283D_I290D, purified (Phaeodactylum tricornutum). Put plainly: SEC; purified Pt-Get3a (after TEV cleavage of the 6His-tag) or its mutants alone; near physiological saline, ~100 mM NaCl; tetramer-dimer equilibrium.

Turning to “Pt-Get3a (full-length, amino acids 1–349), purified, His-tag cleaved (natural protein)”, the stoichiometry N worked out at 4 in assay [1], 2 in assay [2] and 2 in assay [3].

As to “Pt-Get3a wild type, co-expressed with His-tagged TA protein (natural protein)”, the stoichiometry N in assay [4] is 4 and 2; in assay [5] it was 4.

On to “Pt-Get3a L283D_I290D, purified (natural protein)”, for which, in assay [6], the stoichiometry N worked out at 2.
